In patent publication US20200131230A1 (published 2020):
Where two headings read alike, the source gives them in different places. Each block holds one binder with its values, some of them ahead of it. Positions of bridges follow the written chain, without caps; N, C: chain ends. Non-standard residues stand in square brackets, D forms with d. 2Nal = N[C@@H](Cc1ccc2ccccc2c1)C(=O)O; Nle = CCCC[C@H](N)C(=O)O; 4CF = not defined here; DCF = not defined here; HF = not defined here

How the values were obtained:
[1] = molecular target: T1, Thrombospondin human platelet (Calbiochem, 605225) (human, UniProt P07996 19-1170); assay: cell-based or functional assay
[2] = molecular target: T1, Thrombospondin human platelet …; assay: cell-based or functional assay; remark: listed apart in the source

T1 sequence (P07996 19-1170 limits assumed): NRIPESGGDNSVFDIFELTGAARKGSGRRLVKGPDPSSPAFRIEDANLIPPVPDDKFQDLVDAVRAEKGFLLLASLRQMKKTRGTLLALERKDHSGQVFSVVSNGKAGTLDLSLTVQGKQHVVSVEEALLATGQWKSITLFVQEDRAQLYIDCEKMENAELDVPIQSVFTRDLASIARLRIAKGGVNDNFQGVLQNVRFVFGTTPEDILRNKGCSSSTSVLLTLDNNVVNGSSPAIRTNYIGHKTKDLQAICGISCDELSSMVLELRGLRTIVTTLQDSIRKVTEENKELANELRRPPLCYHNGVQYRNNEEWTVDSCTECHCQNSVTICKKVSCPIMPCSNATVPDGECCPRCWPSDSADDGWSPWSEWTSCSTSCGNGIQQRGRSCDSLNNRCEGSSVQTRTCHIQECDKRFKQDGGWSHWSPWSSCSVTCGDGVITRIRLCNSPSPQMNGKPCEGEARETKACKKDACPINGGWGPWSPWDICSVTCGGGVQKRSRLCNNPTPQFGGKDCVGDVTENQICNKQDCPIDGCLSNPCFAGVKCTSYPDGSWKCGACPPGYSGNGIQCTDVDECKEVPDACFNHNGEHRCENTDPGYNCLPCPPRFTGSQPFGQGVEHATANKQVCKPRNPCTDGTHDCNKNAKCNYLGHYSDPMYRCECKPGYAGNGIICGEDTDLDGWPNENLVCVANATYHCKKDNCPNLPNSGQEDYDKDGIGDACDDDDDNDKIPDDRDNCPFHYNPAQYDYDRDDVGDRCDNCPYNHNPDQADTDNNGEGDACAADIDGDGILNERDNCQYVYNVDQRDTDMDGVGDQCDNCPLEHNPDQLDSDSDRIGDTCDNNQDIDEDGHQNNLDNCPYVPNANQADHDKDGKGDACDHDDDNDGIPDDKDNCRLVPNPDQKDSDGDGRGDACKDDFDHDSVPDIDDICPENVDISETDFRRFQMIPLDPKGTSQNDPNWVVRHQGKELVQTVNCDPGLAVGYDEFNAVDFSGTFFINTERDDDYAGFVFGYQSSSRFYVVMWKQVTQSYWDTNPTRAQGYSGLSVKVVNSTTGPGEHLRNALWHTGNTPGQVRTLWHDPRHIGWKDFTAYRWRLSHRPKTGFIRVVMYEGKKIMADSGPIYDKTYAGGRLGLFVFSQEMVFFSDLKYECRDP

Cell adhesion IC50 [1]: 16.3 nM
B1: Compound 39 (peptide)
peptide: {CH2CO}-[2Nal]ISGRNW[Nle]KWFC-NH2
modifications: thioether N-12
SMILES: CCCC[C@@H]1NC(=O)[C@H](Cc2c[nH]c3ccccc23)NC(=O)[C@H](CC(N)=O)NC(=O)[C@H](CCCNC(=N)N)NC(=O)CNC(=O)[C@H](CO)NC(=O)[C@H]([C@@H](C)CC)NC(=O)[C@H](Cc2ccc3ccccc3c2)NC(=O)CSC[C@@H](C(N)=O)NC(=O)[C@H](Cc2ccccc2)NC(=O)[C@H](Cc2c[nH]c3ccccc23)NC(=O)[C@H](CCCCN)NC1=O

Cell adhesion IC50 [2]: 33.4 nM
B2: Compound 8 (peptide)
peptide: {CH2CO}-FRSGRNWVRWVC-NH2
modifications: thioether N-12
SMILES: CC(C)[C@@H]1NC(=O)[C@H](Cc2c[nH]c3ccccc23)NC(=O)[C@H](CCCNC(=N)N)NC(=O)[C@H](C(C)C)NC(=O)[C@H](Cc2c[nH]c3ccccc23)NC(=O)[C@H](CC(N)=O)NC(=O)[C@H](CCCNC(=N)N)NC(=O)CNC(=O)[C@H](CO)NC(=O)[C@H](CCCNC(=N)N)NC(=O)[C@H](Cc2ccccc2)NC(=O)CSC[C@@H](C(N)=O)NC1=O

Cell adhesion IC50 [2]: 21.3 nM
B3: Compound 21 (peptide)
peptide: {CH2CO}-FISGKNWMRWVC-NH2
modifications: thioether N-12
SMILES: CC[C@H](C)[C@@H]1NC(=O)[C@H](Cc2ccccc2)NC(=O)CSC[C@@H](C(N)=O)NC(=O)[C@H](C(C)C)NC(=O)[C@H](Cc2c[nH]c3ccccc23)NC(=O)[C@H](CCCNC(=N)N)NC(=O)[C@H](CCSC)NC(=O)[C@H](Cc2c[nH]c3ccccc23)NC(=O)[C@H](CC(N)=O)NC(=O)[C@H](CCCCN)NC(=O)CNC(=O)[C@H](CO)NC1=O

Cell adhesion IC50 [2]: 15.6 nM
B4: Compound 23 (peptide)
peptide: {CH2CO}-WISGRTWVKWVC-NH2
modifications: thioether N-12
SMILES: CC[C@H](C)[C@@H]1NC(=O)[C@H](Cc2c[nH]c3ccccc23)NC(=O)CSC[C@@H](C(N)=O)NC(=O)[C@H](C(C)C)NC(=O)[C@H](Cc2c[nH]c3ccccc23)NC(=O)[C@H](CCCCN)NC(=O)[C@H](C(C)C)NC(=O)[C@H](Cc2c[nH]c3ccccc23)NC(=O)[C@H]([C@@H](C)O)NC(=O)[C@H](CCCNC(=N)N)NC(=O)CNC(=O)[C@H](CO)NC1=O

Cell adhesion IC50 [1]: 7 nM
B5: Compound 26 (peptide)
peptide: {CH2CO}-FISGRNW[Nle]KWVC-NH2
modifications: thioether N-12
SMILES: CCCC[C@@H]1NC(=O)[C@H](Cc2c[nH]c3ccccc23)NC(=O)[C@H](CC(N)=O)NC(=O)[C@H](CCCNC(=N)N)NC(=O)CNC(=O)[C@H](CO)NC(=O)[C@H]([C@@H](C)CC)NC(=O)[C@H](Cc2ccccc2)NC(=O)CSC[C@@H](C(N)=O)NC(=O)[C@H](C(C)C)NC(=O)[C@H](Cc2c[nH]c3ccccc23)NC(=O)[C@H](CCCCN)NC1=O

Cell adhesion IC50 [1]: 17.2 nM
Binder: {CH2CO}-[2Nal]ISGRNWVK[6CW]VC-NH2 (thioether N-12) [Compound 36]

Cell adhesion IC50 [1]: 26 nM
Binder: {CH2CO}-[2Nal]ISGRN[6CW]VKWVC-NH2 (thioether N-12) [Compound 35]

Cell adhesion IC50 [1]: 19.6 nM
Binder: {CH2CO}-[2Nal]ISGRNWVKW[HF]C-NH2 (thioether N-12; reading uncertain) [Compound 37]

Cell adhesion IC50 [2]: 13 nM
B6: Compound 18 (peptide)
peptide: {CH2CO}-FISGKTWVKWVC-NH2
modifications: thioether N-12
SMILES: CC[C@H](C)[C@@H]1NC(=O)[C@H](Cc2ccccc2)NC(=O)CSC[C@@H](C(N)=O)NC(=O)[C@H](C(C)C)NC(=O)[C@H](Cc2c[nH]c3ccccc23)NC(=O)[C@H](CCCCN)NC(=O)[C@H](C(C)C)NC(=O)[C@H](Cc2c[nH]c3ccccc23)NC(=O)[C@H]([C@@H](C)O)NC(=O)[C@H](CCCCN)NC(=O)CNC(=O)[C@H](CO)NC1=O

Cell adhesion IC50 [1]: 32.5 nM
Binder: {CH2CO}-[2Nal][4CF]SGRNWVKWVC-NH2 (thioether N-12; reading uncertain) [Compound 31]

Cell adhesion IC50 [2]: 7.9 nM
Binder: {CH2CO}-[4CF]ISGRNWVKWVC-NH2 (thioether N-12; reading uncertain) [Compound 25]

Cell adhesion IC50 [1]: 25.9 nM
Binder: {CH2CO}-[2Nal][HF]SGRNWVKWVC-NH2 (thioether N-12; reading uncertain) [Compound 32]

Cell adhesion IC50 [1]: 20.7 nM
B7: Compound 33 (peptide)
peptide: {CH2CO}-[2Nal]WSGRNWVKWVC-NH2
modifications: thioether N-12
SMILES: CC(C)[C@@H]1NC(=O)[C@H](Cc2c[nH]c3ccccc23)NC(=O)[C@H](CCCCN)NC(=O)[C@H](C(C)C)NC(=O)[C@H](Cc2c[nH]c3ccccc23)NC(=O)[C@H](CC(N)=O)NC(=O)[C@H](CCCNC(=N)N)NC(=O)CNC(=O)[C@H](CO)NC(=O)[C@H](Cc2c[nH]c3ccccc23)NC(=O)[C@H](Cc2ccc3ccccc3c2)NC(=O)CSC[C@@H](C(N)=O)NC1=O

Cell adhesion IC50 [2]: 13.1 nM
B8: Compound 20 (peptide)
peptide: {CH2CO}-WISGKTWVKWVC-NH2
modifications: thioether N-12
SMILES: CC[C@H](C)[C@@H]1NC(=O)[C@H](Cc2c[nH]c3ccccc23)NC(=O)CSC[C@@H](C(N)=O)NC(=O)[C@H](C(C)C)NC(=O)[C@H](Cc2c[nH]c3ccccc23)NC(=O)[C@H](CCCCN)NC(=O)[C@H](C(C)C)NC(=O)[C@H](Cc2c[nH]c3ccccc23)NC(=O)[C@H]([C@@H](C)O)NC(=O)[C@H](CCCCN)NC(=O)CNC(=O)[C@H](CO)NC1=O

Cell adhesion IC50 [2]: 14.1 nM
B9: Compound 19 (peptide)
peptide: {CH2CO}-FISGKNWMKWVC-NH2
modifications: thioether N-12
SMILES: CC[C@H](C)[C@@H]1NC(=O)[C@H](Cc2ccccc2)NC(=O)CSC[C@@H](C(N)=O)NC(=O)[C@H](C(C)C)NC(=O)[C@H](Cc2c[nH]c3ccccc23)NC(=O)[C@H](CCCCN)NC(=O)[C@H](CCSC)NC(=O)[C@H](Cc2c[nH]c3ccccc23)NC(=O)[C@H](CC(N)=O)NC(=O)[C@H](CCCCN)NC(=O)CNC(=O)[C@H](CO)NC1=O

Cell adhesion IC50 [1]: 9.2 nM
B10: Compound 38 (peptide)
peptide: {CH2CO}-[2Nal]ISGRNW[Nle]KWVC-NH2
modifications: thioether N-12
SMILES: CCCC[C@@H]1NC(=O)[C@H](Cc2c[nH]c3ccccc23)NC(=O)[C@H](CC(N)=O)NC(=O)[C@H](CCCNC(=N)N)NC(=O)CNC(=O)[C@H](CO)NC(=O)[C@H]([C@@H](C)CC)NC(=O)[C@H](Cc2ccc3ccccc3c2)NC(=O)CSC[C@@H](C(N)=O)NC(=O)[C@H](C(C)C)NC(=O)[C@H](Cc2c[nH]c3ccccc23)NC(=O)[C@H](CCCCN)NC1=O

Cell adhesion IC50 [2]: 21 nM
B11: Compound 16 (peptide)
peptide: {CH2CO}-WISGKNWVKWVC-NH2
modifications: thioether N-12
SMILES: CC[C@H](C)[C@@H]1NC(=O)[C@H](Cc2c[nH]c3ccccc23)NC(=O)CSC[C@@H](C(N)=O)NC(=O)[C@H](C(C)C)NC(=O)[C@H](Cc2c[nH]c3ccccc23)NC(=O)[C@H](CCCCN)NC(=O)[C@H](C(C)C)NC(=O)[C@H](Cc2c[nH]c3ccccc23)NC(=O)[C@H](CC(N)=O)NC(=O)[C@H](CCCCN)NC(=O)CNC(=O)[C@H](CO)NC1=O

Cell adhesion IC50 [1]: 17.6 nM
B12: Compound 29 (peptide)
peptide: {CH2CO}-[2Nal]ISGRNWVK[2Nal]VC-NH2
modifications: thioether N-12
SMILES: CC[C@H](C)[C@@H]1NC(=O)[C@H](Cc2ccc3ccccc3c2)NC(=O)CSC[C@@H](C(N)=O)NC(=O)[C@H](C(C)C)NC(=O)[C@H](Cc2ccc3ccccc3c2)NC(=O)[C@H](CCCCN)NC(=O)[C@H](C(C)C)NC(=O)[C@H](Cc2c[nH]c3ccccc23)NC(=O)[C@H](CC(N)=O)NC(=O)[C@H](CCCNC(=N)N)NC(=O)CNC(=O)[C@H](CO)NC1=O

Cell adhesion IC50 [1]: 28.1 nM
Binder: {CH2CO}-[DCF][2Nal]SGRNWVKWVC-NH2 (thioether N-12; reading uncertain) [Compound 34]

Cell adhesion IC50 [1]: 32.8 nM
B13: Compound 27 (peptide)
peptide: {CH2CO}-[2Nal]FSGRNWVKWVC-NH2
modifications: thioether N-12
SMILES: CC(C)[C@@H]1NC(=O)[C@H](Cc2c[nH]c3ccccc23)NC(=O)[C@H](CCCCN)NC(=O)[C@H](C(C)C)NC(=O)[C@H](Cc2c[nH]c3ccccc23)NC(=O)[C@H](CC(N)=O)NC(=O)[C@H](CCCNC(=N)N)NC(=O)CNC(=O)[C@H](CO)NC(=O)[C@H](Cc2ccccc2)NC(=O)[C@H](Cc2ccc3ccccc3c2)NC(=O)CSC[C@@H](C(N)=O)NC1=O

Cell adhesion IC50 [2]: 17.7 nM
B14: Compound 17 (peptide)
peptide: {CH2CO}-FITGKNWVKWVC-NH2
modifications: thioether N-12
SMILES: CC[C@H](C)[C@@H]1NC(=O)[C@H](Cc2ccccc2)NC(=O)CSC[C@@H](C(N)=O)NC(=O)[C@H](C(C)C)NC(=O)[C@H](Cc2c[nH]c3ccccc23)NC(=O)[C@H](CCCCN)NC(=O)[C@H](C(C)C)NC(=O)[C@H](Cc2c[nH]c3ccccc23)NC(=O)[C@H](CC(N)=O)NC(=O)[C@H](CCCCN)NC(=O)CNC(=O)[C@H]([C@@H](C)O)NC1=O

Cell adhesion IC50 [2]: 20.3 nM
B15: Compound 22 (peptide)
peptide: {CH2CO}-WISGKTWVRWVC-NH2
modifications: thioether N-12
SMILES: CC[C@H](C)[C@@H]1NC(=O)[C@H](Cc2c[nH]c3ccccc23)NC(=O)CSC[C@@H](C(N)=O)NC(=O)[C@H](C(C)C)NC(=O)[C@H](Cc2c[nH]c3ccccc23)NC(=O)[C@H](CCCNC(=N)N)NC(=O)[C@H](C(C)C)NC(=O)[C@H](Cc2c[nH]c3ccccc23)NC(=O)[C@H]([C@@H](C)O)NC(=O)[C@H](CCCCN)NC(=O)CNC(=O)[C@H](CO)NC1=O
